Data from the supplement of paper PMC9732359.
± gives the uncertainty stated by the source.

Assay: protein stability index of a GFP-peptide fusion (yeast GPS) (PSI 1-4); higher = more stable; sorted into four equal gates, so the index is relative within each strain
How it was run: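 Plasmids isolated from each sorting gate were PCR-amplified and Illumina-sequenced, and barcodes assigned the reads to strains. The gates, four of equal size, were set by GFP/Cherry fluorescence ratio on mid-log cultures in leucine-free medium. These cultures were yeast carrying a pooled library of tiled 17-residue yeast protein peptides fused downstream of GFP on a plasmid that also expresses Cherry. The protein stability index is the sum of every gate's read frequency times its gate number.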

Sequence: DEYLGSHTDQPANVLLV [NNF1]
- protein stability index (doa10∆): 3.57 ± 0.25
- protein stability index (ubr1∆): 2.92 ± 0.13

Sequence: DFDDSTAQEINFKMLVL [IRR1]
- protein stability index (doa10∆): 2.59 ± 0.064
- protein stability index (pdr5∆): 2.66 ± 0.053
- protein stability index (san1∆): 2.67 ± 0.058
- protein stability index (ubr1∆): 2.9 ± 0.054

Sequence: DFDLLNKTLTFETETEV [FAS1]
- protein stability index (doa10∆): 3.34 ± 0.079
- protein stability index (pdr5∆): 3.37 ± 0.067
- protein stability index (san1∆): 3.44 ± 0.045
- protein stability index (ubr1∆): 3.3 ± 0.051

Sequence: DFGFDLDIEKEAPAGNI [MCD1]
- protein stability index (doa10∆): 2.76 ± 0.26
- protein stability index (ubr1∆): 3.3 ± 0.15

Sequence: DFIDTATRHVLMRQGVL [RPS3]
- protein stability index (doa10∆): 3.24 ± 0.055
- protein stability index (pdr5∆): 3.06 ± 0.059
- protein stability index (san1∆): 3.38 ± 0.054
- protein stability index (ubr1∆): 2.98 ± 0.04

Sequence: DFIKFDQIAVCEISGSI [BRN1]
- protein stability index (doa10∆): 2.32 ± 0.14
- protein stability index (pdr5∆): 2.4 ± 0.12
- protein stability index (san1∆): 2.12 ± 0.14
- protein stability index (ubr1∆): 2.82 ± 0.076

Sequence: DFREKALYIAMMTRRVV [RET1]
- protein stability index (doa10∆): 1.18 ± 0.077
- protein stability index (pdr5∆): 1.58 ± 0.12
- protein stability index (ubr1∆): 1.37 ± 0.074

Sequence: DFSARTVISGDPNLELD [RPO21]
- protein stability index (doa10∆): 3.29 ± 0.22
- protein stability index (pdr5∆): 2.79 ± 0.21
- protein stability index (san1∆): 2.58 ± 0.15
- protein stability index (ubr1∆): 2.47 ± 0.13

Sequence: DFYVVMNRPGARVTRRK [RPL11A]
- protein stability index (doa10∆): 3.22 ± 0.17
- protein stability index (pdr5∆): 2.86 ± 0.15
- protein stability index (san1∆): 3.28 ± 0.061
- protein stability index (ubr1∆): 3.32 ± 0.11

Sequence: DGEGKVDSISLHKIFYK [YCG1]
- protein stability index (doa10∆): 2.78 ± 0.087
- protein stability index (pdr5∆): 3.24 ± 0.064
- protein stability index (san1∆): 3.13 ± 0.048
- protein stability index (ubr1∆): 2.94 ± 0.063

Sequence: DGGLFTLFVRDQDSAVV [QCR2]
- protein stability index (doa10∆): 3.04 ± 0.11
- protein stability index (pdr5∆): 3.16 ± 0.078
- protein stability index (san1∆): 3.25 ± 0.059
- protein stability index (ubr1∆): 3.32 ± 0.057

Sequence: DGHLQFLNDVIPTTKNL [DLS1]
- protein stability index (doa10∆): 2.96 ± 0.094
- protein stability index (pdr5∆): 3.05 ± 0.068
- protein stability index (san1∆): 2.8 ± 0.072
- protein stability index (ubr1∆): 3.04 ± 0.073

Sequence: DGSQQNLQQDKTNFQDV [REC8]
- protein stability index (doa10∆): 3.23 ± 0.071
- protein stability index (pdr5∆): 3.38 ± 0.054
- protein stability index (san1∆): 3.42 ± 0.068
- protein stability index (ubr1∆): 3.3 ± 0.038

Sequence: DHKRFIVFHNEFSEHTF [DIS3]
- protein stability index (doa10∆): 2.55 ± 0.042
- protein stability index (pdr5∆): 2.92 ± 0.048
- protein stability index (san1∆): 2.85 ± 0.046
- protein stability index (ubr1∆): 3.02 ± 0.038

Sequence: DIFSNLSSDDLLGKESF [YCS4]
- protein stability index (doa10∆): 2.87 ± 0.05
- protein stability index (pdr5∆): 2.24 ± 0.05
- protein stability index (san1∆): 2.95 ± 0.044
- protein stability index (ubr1∆): 2.86 ± 0.034

Sequence: DILQITKKPLMVKNVKP [SIR4]
- protein stability index (doa10∆): 2.79 ± 0.063
- protein stability index (pdr5∆): 2.72 ± 0.049
- protein stability index (san1∆): 2.55 ± 0.069
- protein stability index (ubr1∆): 2.63 ± 0.062

Sequence: DILSQILYGLVDKGAIM [YJL039C/NUP192]
- protein stability index (doa10∆): 2.87 ± 0.11
- protein stability index (pdr5∆): 2.87 ± 0.25
- protein stability index (san1∆): 2.95 ± 0.19
- protein stability index (ubr1∆): 2.79 ± 0.28

Sequence: DISATQLPKQLWRNFCR [ITC1]
- protein stability index (doa10∆): 2.61 ± 0.054
- protein stability index (pdr5∆): 2.68 ± 0.048
- protein stability index (san1∆): 2.71 ± 0.035
- protein stability index (ubr1∆): 2.8 ± 0.036

Sequence: DIWSISKKRQAEKLVPL [YML031W/NDC1]
- protein stability index (doa10∆): 2.64 ± 0.089
- protein stability index (pdr5∆): 2.78 ± 0.076
- protein stability index (san1∆): 2.35 ± 0.073
- protein stability index (ubr1∆): 2.55 ± 0.062

Sequence: DKDNAEKTLGKSLSKAI [RPN7]
- protein stability index (doa10∆): 2.27 ± 0.12
- protein stability index (pdr5∆): 2.67 ± 0.21

Sequence: DKDSTKEVASLPNKSTI [FAS2]
- protein stability index (doa10∆): 3.13 ± 0.089
- protein stability index (pdr5∆): 3.1 ± 0.12
- protein stability index (san1∆): 3.02 ± 0.072
- protein stability index (ubr1∆): 3.21 ± 0.14

Sequence: DKELRKTKFQYKFLDQN [YIL149C/MLP2]
- protein stability index (doa10∆): 2.72 ± 0.084
- protein stability index (pdr5∆): 2.96 ± 0.075
- protein stability index (san1∆): 2.96 ± 0.064
- protein stability index (ubr1∆): 2.98 ± 0.059

Sequence: DLAERASELDESKDSIQ [SMC3]
- protein stability index (doa10∆): 3.06 ± 0.093
- protein stability index (pdr5∆): 3.1 ± 0.09
- protein stability index (san1∆): 2.83 ± 0.17
- protein stability index (ubr1∆): 3.17 ± 0.06

Sequence: DLINILEKKGFSEVYEY [LIN1]
- protein stability index (doa10∆): 3.44 ± 0.17
- protein stability index (pdr5∆): 3.21 ± 0.29
- protein stability index (san1∆): 3.3 ± 0.099
- protein stability index (ubr1∆): 3.17 ± 0.12

Sequence: DLKAQFQELDSKKQRNN [RPN9]
- protein stability index (doa10∆): 3.21 ± 0.088
- protein stability index (pdr5∆): 3.2 ± 0.08
- protein stability index (san1∆): 3.09 ± 0.078
- protein stability index (ubr1∆): 3.33 ± 0.052

Sequence: DLKEGLQDLSRYSRQFI [GRR1]
- protein stability index (doa10∆): 3.07 ± 0.062
- protein stability index (pdr5∆): 2.24 ± 0.058
- protein stability index (san1∆): 3.02 ± 0.038
- protein stability index (ubr1∆): 3.29 ± 0.035

Sequence: DLKKLNLNVYIQVFEKP [CDC53]
- protein stability index (doa10∆): 2.23 ± 0.11
- protein stability index (pdr5∆): 2.5 ± 0.17
- protein stability index (san1∆): 2.33 ± 0.27
- protein stability index (ubr1∆): 2.78 ± 0.09

Sequence: DLKLPPMDAYLKLNHII [SNU114]
- protein stability index (doa10∆): 3.09 ± 0.28
- protein stability index (pdr5∆): 2.94 ± 0.18
- protein stability index (san1∆): 2.52 ± 0.099
- protein stability index (ubr1∆): 2.68 ± 0.12

Sequence: DLKPANIMVTIDGCVKI [SSN3]
- protein stability index (doa10∆): 2.58 ± 0.29
- protein stability index (pdr5∆): 1.83 ± 0.16
- protein stability index (ubr1∆): 1.69 ± 0.25

Sequence: DLKSKADKLADMANEII [RRP6]
- protein stability index (doa10∆): 3.38 ± 0.15
- protein stability index (pdr5∆): 3.17 ± 0.12
- protein stability index (san1∆): 3.19 ± 0.082
- protein stability index (ubr1∆): 3.16 ± 0.085

Sequence: DLKSKGLIPADATFAGH [FAS1]
- protein stability index (doa10∆): 3.04 ± 0.092
- protein stability index (pdr5∆): 3.01 ± 0.074
- protein stability index (san1∆): 3.07 ± 0.12
- protein stability index (ubr1∆): 2.98 ± 0.065

Sequence: DLMDDMSDISDLDDLGF [RPN3]
- protein stability index (doa10∆): 1.82 ± 0.098
- protein stability index (pdr5∆): 1.89 ± 0.081
- protein stability index (san1∆): 1.57 ± 0.14
- protein stability index (ubr1∆): 1.74 ± 0.075

Sequence: DLSMVPKMKDEEYDDDD [SNF2]
- protein stability index (doa10∆): 2.9 ± 0.13
- protein stability index (pdr5∆): 3.22 ± 0.14
- protein stability index (san1∆): 3.24 ± 0.098
- protein stability index (ubr1∆): 2.99 ± 0.12

Sequence: DLSTLVHSSSPSTSSNM [GAL11]
- protein stability index (doa10∆): 2.77 ± 0.066
- protein stability index (pdr5∆): 2.91 ± 0.069
- protein stability index (san1∆): 2.71 ± 0.082
- protein stability index (ubr1∆): 2.78 ± 0.039

Sequence: DLVHIKDSLDNTFVTRL [RPS4A]
- protein stability index (doa10∆): 2.79 ± 0.12
- protein stability index (pdr5∆): 2.83 ± 0.091
- protein stability index (san1∆): 3 ± 0.094
- protein stability index (ubr1∆): 3.04 ± 0.058

Sequence: DLVLQILEDTATMSVFL [RRI2]
- protein stability index (doa10∆): 2.86 ± 0.063
- protein stability index (pdr5∆): 2.36 ± 0.055
- protein stability index (san1∆): 2.98 ± 0.054
- protein stability index (ubr1∆): 2.71 ± 0.038

Sequence: DNETPSKKTSPKATSSA [YOR098C/NUP1]
- protein stability index (doa10∆): 2.1 ± 0.05
- protein stability index (pdr5∆): 2.52 ± 0.049
- protein stability index (san1∆): 2.41 ± 0.064
- protein stability index (ubr1∆): 3.026 ± 0.029

Sequence: DNEVQRTMLELITQLDG [RPT1]
- protein stability index (doa10∆): 2.55 ± 0.12
- protein stability index (pdr5∆): 3.21 ± 0.12
- protein stability index (san1∆): 2.79 ± 0.14
- protein stability index (ubr1∆): 2.67 ± 0.15

Sequence: DNKIDIYQIHIPYAAKL [RPB2]
- protein stability index (doa10∆): 3.16 ± 0.082
- protein stability index (pdr5∆): 2.5 ± 0.11
- protein stability index (san1∆): 3.15 ± 0.092
- protein stability index (ubr1∆): 2.92 ± 0.063

Sequence: DNKINEIKLLEISCKQW [CSI1]
- protein stability index (doa10∆): 2.54 ± 0.18
- protein stability index (pdr5∆): 2.43 ± 0.17
- protein stability index (san1∆): 2.17 ± 0.12
- protein stability index (ubr1∆): 2.45 ± 0.12

Sequence: DNLFGETESSVSNNEAN [SWI3]
- protein stability index (doa10∆): 3.55 ± 0.16
- protein stability index (pdr5∆): 2.92 ± 0.089
- protein stability index (ubr1∆): 2.89 ± 0.083

Sequence: DNTVRTSANGIVQFTYG [RPO31]
- protein stability index (doa10∆): 2.67 ± 0.1
- protein stability index (pdr5∆): 2.76 ± 0.1
- protein stability index (san1∆): 2.25 ± 0.17
- protein stability index (ubr1∆): 2.53 ± 0.11

Sequence: DNVDFILSNVDLAMANS [RPB3]
- protein stability index (doa10∆): 3.07 ± 0.057
- protein stability index (pdr5∆): 3.08 ± 0.054
- protein stability index (san1∆): 3.12 ± 0.064
- protein stability index (ubr1∆): 2.97 ± 0.05

Sequence: DPDIPMTIDLEPIEESS [IRR1]
- protein stability index (doa10∆): 3.06 ± 0.086
- protein stability index (pdr5∆): 3.45 ± 0.1
- protein stability index (san1∆): 3.01 ± 0.13
- protein stability index (ubr1∆): 3.15 ± 0.11

Sequence: DPDKLKPNDLVGVNKDS [RPT5]
- protein stability index (doa10∆): 3.18 ± 0.11
- protein stability index (pdr5∆): 3.32 ± 0.13
- protein stability index (san1∆): 3.34 ± 0.055
- protein stability index (ubr1∆): 3.41 ± 0.098

Sequence: DPIWQHQSLGPDGLGEV [RET1]
- protein stability index (doa10∆): 2.96 ± 0.11
- protein stability index (pdr5∆): 3.13 ± 0.11
- protein stability index (san1∆): 3.04 ± 0.11
- protein stability index (ubr1∆): 3.35 ± 0.15

Sequence: DPLVSLMMVEKVPDSTY [RPT6]
- protein stability index (doa10∆): 2.59 ± 0.087
- protein stability index (pdr5∆): 2.93 ± 0.064
- protein stability index (san1∆): 2.49 ± 0.069
- protein stability index (ubr1∆): 2.89 ± 0.063

Sequence: DPQPFLKHVLQLIFRQQ [SNU114]
- protein stability index (doa10∆): 1.38 ± 0.042
- protein stability index (pdr5∆): 2.02 ± 0.052
- protein stability index (san1∆): 2.44 ± 0.064
- protein stability index (ubr1∆): 2.51 ± 0.038

Sequence: DQAMEKKPSPQTIPIQI [YGR119C/NUP57]
- protein stability index (pdr5∆): 2.85 ± 0.24

Sequence: DQDSAVVSSNIKKIVAD [QCR2]
- protein stability index (ubr1∆): 3.14 ± 0.14

Sequence: DQIEKLREVVELPLLSP [RPT1]
- protein stability index (doa10∆): 2.76 ± 0.075
- protein stability index (pdr5∆): 3 ± 0.054
- protein stability index (san1∆): 2.87 ± 0.061
- protein stability index (ubr1∆): 2.94 ± 0.073

Sequence: DQLAVSPEQIDASPDSL [YCS4]
- protein stability index (doa10∆): 1.62 ± 0.071
- protein stability index (pdr5∆): 1.89 ± 0.081
- protein stability index (san1∆): 1.65 ± 0.1
- protein stability index (ubr1∆): 1.86 ± 0.06
